B1: EHEE_rd4_0726 (parent)
chain: DIEITTNGEEDAKRVIKELQKRNLEYHIEVHGNQWVIKVR

Variants of: B1
Test: folding stability dG (cDNA display proteolysis); higher = more stable
Details: PBS, room temperature

Folding stability dG [kcal/mol] of substitutions, site by site:
I28: A 1.04; T 1.09; M 1.61; W 1.24; Y 1.48; H -0.075; Q 0.128; K -0.291; V 2.53; L 2.02; E -0.159; F 1.48; S 0.224
V30: H 1.94; G 0.63; A 1.41; E 1.16; N 1.57; T 1.71; K 2.36; S 1.32; Q 2.14; M 2.01; W 1.81; I 2.72; Y 2.12; R 2.43; D 0.526; P 0.866; C 2.23; F 2.06; L 1.86
H27: T 3.34; F 2.57; Y 2.73; V 2.86; A 2.34; K 2.46; L 2.37; R 2.59; S 3.05; N 2.17; D 2.48; M 2.54; Q 2.45; W 2.69; G 1.59; C 2.6; E 2.66; I 2.84
E29: R 1.77; I 2.32; Y 2.26; L 1.91; G 0.743; Q 2; F 2.27; M 1.93; T 2.33; H 1.78; W 1.82; V 2.3; K 1.66; N 1.41; D 1.56; A 1.71; S 2.14
G32: K 1.35; W 0.99; E 1.9; Q 1.59; F 1.51; M 1.43; L 1.38; P 1; R 1.09; Y 1.19; N 1.94; S 1.21; V 1.08; D 1.85; T 1; H 1.39; A 1.44; I 1.21
L24: Y 1.89; S 1.04; N 0.681; P -0.114; R 1.65; V 2.19; K 1.67; M 2.19; T 1.14; Q 1.45; W 2.05
Q34: A 1.92; E 1.85; D 1.68
E25: N 2.28; Q 2.6; G 2.04; K 2.76; W 2.52; Y 2.43; M 2.52; F 2.49; H 2.7; P 2.33; V 2.58; T 2.66; A 2.53; I 2.66; D 2.31; S 2.67; R 2.58; L 2.6
Y26: I 1.53; L 1.35; S 0.005; P 0.491; A 1.07; T 0.301; M 1.13; W 1.95; F 2.54; H 0.887; G 0.722; V 1.42
H31: I 2.72; V 2.61; N 2.42; F 2.36; D 1.79; W 2.08; M 2.32; Q 2.29; A 1.88; Y 2.26; T 2.17; P -0.6; R 2.97; K 2.5; S 2.12; G 0.973; L 2.27; E 1.68; C 2.31
N33: Y 1.98; L 1.94; R 1.68; C 1.96; Q 2.09; E 2.16; P 1.78; F 2.06; A 2; K 1.92; I 1.66; D 2.5; T 2.24; W 1.83; V 1.76; M 1.97; S 2.22; G 2.34; H 2.03

From the MegaScale stability set (Tsuboyama et al. 2023)
